The subject of series [1] is K160E/R164E double mutant SGTA_TPR. Description: Reciprocal NMR CSP titration, Rpn13_260-407 with K160E/R164E double mutant SGTA_TPR. The format is binding, human. The settings on record: up to 6-fold molar excess of Rpn13_260-407 and vice versa; pH 6.0, 25 °C. From the text: The ‘two-carboxylate clamp’ mode of binding is a well-characterised mechanism of molecular recognition by TPR domains in the context of their binding to the conserved C-terminal IEEVD and MEEVD motifs of Hsp70 and Hsp90 chaperones, respectively. It is known that conserved residues present on the concave surface of the TPR domain form a positively charged region within this groove that clamp, the two carboxylate groups of the terminal aspartate (Fig. 3D). […]
Protein samples at concentrations between 300 μM and 1 mM were prepared in 10% D2O (Sigma Aldrich), 10 mM potassium phosphate pH 6.0, 100 mM NaCl and 250 μM TCEP buffer (with 10 μM DSS for proton chemical shift referencing). […] All NMR spectra were processed with TopSpin and analysed with CcpNMR Analysis[35]. Proteins used for NMR titrations were dialysed overnight against the same buffer (10 mM potassium phosphate pH 6.0, 100 mM NaCl and 250 μM TCEP) and mixed in different molar ratios, with the concentration of the labelled protein maintained constant. ^1H-^15N HSQC experiments were recorded for each titration point at 25 °C. Chemical shift perturbation (CSP) values were calculated for each amide signal using the following formula: […]

For series [2], the target named is T1, TPR domain of SGTA (SGTA_TPR) (Homo sapiens, UniProt O43765).
T1 construct: thioredoxin A (TxA) fusion (N, cleaved yes); hexahistidine tag (N, cleaved yes); made in house; host or cells: E. coli BL21(DE3) Rosetta
The experiment in a line: Solution NMR CSP titration of unlabelled ligand into 15N-labelled SGTA_TPR. Particulars: pH 6.0, 25 °C. The format is binding. The protocol: In order to understand molecular details underlying the interaction between SGTA and Rpn13, solution NMR studies were carried out on excised domains of SGTA and Rpn13 guided by earlier mapping studies. Reciprocal chemical shift perturbation (CSP) experiments were performed by titrating unlabelled Rpn13 C-terminal domain (residues 260–407; hereafter described as Rpn13_260-407) into ^15N-labelled TPR domain of SGTA (residues 84–211; hereafter referred to as SGTA_TPR) and vice versa. Assignments of backbone amide resonances were obtained from the BMRB (accession numbers 5709 and 17286, for SGTA_TPR and Rpn13_260-407, respectively). The ^1H-^15N HSQC spectra of both SGTA_TPR and Rpn13_260-407 show binding in a fast exchange regimen (Figs 1A and 2A). […] Binding was further confirmed by size-exclusion chromatography (SEC) and isothermal titration calorimetry (ITC) (Fig. 1C,D). […] ITC experiments yield a dissociation constant of 16.1 ± 1.4 μM in keeping with the value obtained from NMR.
Protein samples at concentrations between 300 μM and 1 mM were prepared in 10% D2O (Sigma Aldrich), 10 mM potassium phosphate pH 6.0, 100 mM NaCl and 250 μM TCEP buffer (with 10 μM DSS for proton chemical shift referencing). All NMR experiments were acquired in 5 mm NMR tubes at 25 °C on 500 MHz and 700 MHz Bruker Avance spectrometers equipped with cryoprobes and operated by the TopSpin 3.1 software package. All NMR spectra were processed with TopSpin and analysed with CcpNMR Analysis[35]. Proteins used for NMR titrations were dialysed overnight against the same buffer (10 mM potassium phosphate pH 6.0, 100 mM NaCl and 250 μM TCEP) and mixed in different molar ratios, with the concentration of the labelled protein maintained constant. ^1H-^15N HSQC experiments were recorded for each titration point at 25 °C. Chemical shift perturbation (CSP) values were calculated for each amide signal using the following formula: […]
where Δδ1H and Δδ15N are the chemical shift differences for the same amide in its free and bound state (δfree−δbound) and for proton and nitrogen chemical shift values respectively. […]

The target of series [3] is T1, TPR domain of SGTA (SGTA_TPR). Description: Isothermal titration calorimetry (ITC), SGTA_TPR titrated into Rpn13 or DMSLD peptide. The format is binding. Here is the method:
ITC experiments were performed using an ITC-200 microcalorimeter from Microcal (GE Healthcare) at 25 °C following the standard protocol as reported previously. Proteins or peptide samples were prepared in 10 mM potassium phosphate pH 6.0, 100 mM NaCl, 250 μM TCEP. In each titration, either 40 injections of 1 μL or 20 injections of 2 μL of SGTA_TPR each, at a concentration of 1 mM, were added to a sample of Rpn13 or the Rpn13 derived DMSLD peptide at a concentration of 50 μM in the reaction cell. A nonlinear least-squares minimization algorithm was applied to integrated heat data obtained for the titrations, corrected for heats of dilution, in order to fit the experimentally obtained values to a theoretical titration curve. This was performed using the MicroCal-Origin 7.0 software package. ΔH (reaction enthalpy change in kcal/mol), Kb (equilibrium binding constant in per molar), and n (molar ratio between the proteins in the complex) were used as fitting parameters. The reaction entropy, ΔS, was calculated using the relationships ΔG = −RT lnKb (R = 8.314 J/(mol K), T 298 K) where ΔG = ΔH − TΔS. Dissociation constants (Kd) have been determined for each interaction. Binding was assumed to be at one site (n = 1), to determine the binding affinity (Kd) and thermodynamic parameters.
In general terms: ITC needs no label: the signal is the heat of the interaction.

Series [4] concerns K160E/R164E double mutant SGTA_TPR. Description: Size exclusion chromatography (SEC) complex formation with K160E/R164E double mutant SGTA_TPR. The format is binding, human. Particulars: Rpn13_260-407 up to 3-fold molar excess. An excerpt:
The ‘two-carboxylate clamp’ mode of binding is a well-characterised mechanism of molecular recognition by TPR domains in the context of their binding to the conserved C-terminal IEEVD and MEEVD motifs of Hsp70 and Hsp90 chaperones, respectively. It is known that conserved residues present on the concave surface of the TPR domain form a positively charged region within this groove that clamp, the two carboxylate groups of the terminal aspartate (Fig. 3D). As the Rpn13 amino acid sequence ends with an aspartate, and given the C-terminal DMSLD peptide being necessary and sufficient for this interaction, the possibility of a two-carboxylate clamp mechanism was explored by site-directed mutagenesis experiments. […] Therefore a K160E/R164E double mutant version of SGTA was used in SEC and NMR experiments to understand the effect it had on Rpn13_260-407 binding.
Gene fragments encoding human Rpn13 (260–407 and 260–402) and SGTA_TPR domain (84–211) were PCR amplified from cDNA (Life Technologies) and cloned into the BamHI/XhoI site of a modified pET28 vector which encodes an N-terminal thioredoxine A (TxA) fusion protein followed by a hexahistidine tag and tobacco etch virus (TEV) protease cleavage site. […]

Entries after “also recorded” stand apart in the source; their conditions may differ.

The Kd is a measure of binding affinity in units of concentration.

T1 sequence (O43765 84-211): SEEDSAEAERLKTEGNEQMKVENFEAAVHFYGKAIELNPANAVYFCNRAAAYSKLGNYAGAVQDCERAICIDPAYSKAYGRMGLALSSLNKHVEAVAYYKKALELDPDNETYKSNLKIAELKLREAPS

B1: Rpn13_260-407: Rpn13 C-terminal domain (residues 260–407), human, expressed in E. coli (protein)
chain: QPIQLSDLQSILATMNVPAGPAGGQQVDLASVLTPEIMAPILANADVQERLLPYLPSGESLPQTADEIQNTLTSPQFQQALGMFSAALASGQLGPLMCQFGLPAEAVEAANKGDVEAFAKAMQNNAKPEQKEGDTKDKKDEEEDMSLD
modifications: left off: thioredoxin A (TxA), N-terminal, cleaved | His6, N-terminal, cleaved
notes: Rpn13 C-terminal domain (residues 260–407), human, expressed in E. coli
Turning to B1, the “CSP with K160E/R164E SGTA_TPR, result in words” value in series [1] is recorded as “disruption of the SGTA_TPR-Rpn13_260-407 interaction”. The “effect on SGTA_TPR helix-7 residues 203–209 amide signals” value in series [2] (3-fold molar excess of unlabelled ligand) is reported as “perturbed”. The “CSP of SGTA_TPR backbone amide signals, result in words” value in series [2] (unlabelled ligand into 15N-labelled SGTA_TPR, Rpn13_260-407 up to 8 equivalents, Rpn13_260-402 up to 6-fold molar excess) is reported as “Widespread perturbation of backbone amide signals; also recorded: cannot be fitted to a meaningful binding isotherm”. For the same molecule, the “ΔS (ITC)” value in series [3] (1 mM SGTA_TPR into 50 μM sample, pH 6.0, 25 °C, calculated from ΔG = −RT lnKb and ΔG = ΔH − TΔS) is on record as 10.6 ± 0.8 cal/mol·K. Further, in series [3] (1 mM SGTA_TPR into 50 μM sample, pH 6.0, 25 °C, one site (n = 1)), the “ΔH (ITC)” value is -3.37 ± 0.08 kcal/mol. The Kd in series [3] (ITC-200, 1 mM SGTA_TPR injected into 50 μM Rpn13 or DMSLD peptide, 10 mM potassium phosphate pH 6.0, 100 mM NaCl, 250 μM TCEP, 25 °C, one site (n = 1), read-out: dissociation constant, Kd (ITC)) worked out at 16.1 ± 1.4 µM. Besides, the “SEC complex formation with K160E/R164E SGTA_TPR” value in series [4] is “does not co-elute; also recorded: no evidence of complex formation”.

The values above are taken from publication PMC5101480 (Scientific Reports, 2016).
